Test results taken from PMC5566439 (2017).

Target: T1, AlkG (rubredoxin-2) (Pseudomonas putida, UniProt Q9WWW4)
T1 chain: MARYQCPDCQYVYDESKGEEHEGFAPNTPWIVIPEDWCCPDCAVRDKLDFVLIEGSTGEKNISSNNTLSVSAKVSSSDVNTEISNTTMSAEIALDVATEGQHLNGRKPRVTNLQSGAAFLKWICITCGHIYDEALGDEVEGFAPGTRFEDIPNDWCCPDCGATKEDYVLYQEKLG
Assay: electrochemical activity titration on AlkG-immobilized screen-printed carbon electrode (one-site and two-site binding model fits)

B1: AlkB (protein)
chain: MNGKSSVLDSAPEYVDKKKYFWILSTFWPATPMIGIWLANETGWGIFYGLVLAVWYGVLPLLDAMFGEDFNNPPEEVVEKLEKERYYRVLTYLTVPMHYAALIVSAWWVGTQSMSWFEIVALALSLGIVNGLALNTGHELGHKKEAFDRWMAKIVLAVVGYGHFFIEHNKGHHRDVATPMDPATSRMGENIYKFSTREIPGAFRRAWGLEEQRLSRRGQSVWSFDNEILQPMVITVVLYTLLLAFFGPKMLVFLPIQMAFGWWQLTSANYIEHYGLLREKMADGRYEHQKPHHSWNSNHIVSNLVLFHLQRHSDHHAHPTRSYQSLRDFPGLPALPTGYPGAFLMAMIPQWFRSVMDPKVVNWANGDLSKIQIEDSMRAEYIKKFTHNVGADDKRGATAVAS
Work on B1 yielded a Kd of 268 µM.
